# Laboratory results reported in PMC10758295 (Cell reports, 2023).
# B1: His6-EWSR1 (natural protein)
# chain: MASTDYSTYSQAAAQQGYSAYTAQPTQGYAQTTQAYGQQSYGTYGQPTDVSYTQAQTTATYGQTAYATSYGQPPTGYTTPTAPQAYSQPVQGYGTGAYDTTTATVTTTQASYAAQSAYGTQPAYPAYGQQPAATAPTRPQDGNKPTETSQPQSSTGGYNQPSLGYGQSNYSYPQVPGSYPMQPVTAPPSYPPTSYSSTQPTSYDQSSYSQQNTYGQPSSYGQQSSYGQQSSYGQQPPTSYPPQTGSYSQAPSQYSQQSSSYGQQSSFRQDHPSSMGVYGQESGGFSGPGENRSMSGPDNRGRGRGGFDRGGMSRGGRGGGRGGMGSAGERGGFNKPGGPMDEGPDLDLGPPVDPDEDSDNSAIYVQGLNDSVTLDDLADFFKQCGVVKMNKRTGQPMIHIYLDKETGKPKGDATVSYEDPPTAKAAVEWFDGKDFQGSKLKVSLARKKPPMNSMRGGLPPREGRGMPPPLRGGPGGPGGPGGPMGRMGGRGGDRGGFPPRGPRGSRGNPSGGGNVQHRAGDWQCPNPGCGNQNFAWRTECNQCKAPKPEGFLPPPFPPPGGDRGRGGPGGMRGGRGGLMDRGGPGGMFRGGRGGDRGGFRGGRGMDRGGFGGGRRGGPGGPPGPLMEQMGGRRGGRGGPGKMDKGEHRQERRDRPY
# Target: CENP-A-H4 complex (UniProt P49450 1-140; P62805 1-103)
# Test: native gel or EMSA
# Sequence of CENP-A-H4 complex (P49450 whole entry, one chain of several): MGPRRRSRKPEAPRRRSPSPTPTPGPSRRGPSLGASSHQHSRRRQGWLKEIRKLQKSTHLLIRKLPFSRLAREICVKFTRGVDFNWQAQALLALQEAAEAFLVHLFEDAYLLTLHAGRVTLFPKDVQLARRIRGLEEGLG
binder,measurement,value
B1,binding result,binds
